Here are results for 19 molecules from US20150158934A1.

Assay [1] has as its target gp140UG37 (subtype A), gp140 envelope glycoprotein from the HIV-1 group M A-clade isolate 92UG037 (HIV-1). The assay is described as follows: binding of VHH to gp140 92UG (method not given).
For assay [2], the target named is gp140CN54 (subtype B'/C), gp140 envelope glycoprotein from the HIV-1 group M CRF07-B/C-clade isolate 97CN54 (HIV-1). In words: binding of VHH to gp140 CN54 (method not given).
Assay [3] has as its target gp140UG37 (subtype A), gp140 envelope glycoprotein from the HIV-1 group M A-clade isolate 92UG037 (HIV-1). In words: binding of purified VHH to gp140 92UG (method not given).
Assay [4] addresses gp140CN54 (subtype B'/C), gp140 envelope glycoprotein from the HIV-1 group M CRF07-B/C-clade isolate 97CN54 (HIV-1). In words: binding of purified VHH to gp140 CN54 (method not given).
Assay [5] deals with gp120Yu-2 109-428 (HIV-1). In words: competition ELISA on coated gp120Yu-2 109-428; periplasmic VHH first, then competitor b12 detected.
Assay [6] concerns the target gp120Yu-2 109-428 (HIV-1). The assay is described as follows: competition ELISA on coated gp120Yu-2 109-428; periplasmic VHH first, then competitor sCD4 detected.
The target of assay [7] is gp120Yu-2 109-428 (HIV-1). The assay is described as follows: competition ELISA on coated gp120Yu-2 109-428; periplasmic VHH first, then competitor 17b detected. (In general: ELISA stands for enzyme-linked immunosorbent assay.)

B1: J3_CDR2_fill_1 (site directed mutagenesis) (VHH)
VHH: EVQLVESGGGLVQAGGFLRLSCELRGSIFNQYAMAWFRQAPGKEREFVAGMSGAVPHYGEFVKGRFTISRDNAKSTVYLQMSSLKPEDTAIYFCARSKSTYISYNSNGYDYWGRGTQVTVSS
With B1, the results for the K50 (50% binding concentration) in assay [1] and in assay [2] were greater than 10 µg/mL and greater than 100 µg/mL, respectively.

B2: L8Cj3 Mutant 2 (VHH)
VHH: EVQLVESGGGLVQAGGFLRLSCELRGSIFSQYAMAWFRQAPGKEREFVAGMGAVPHYGEFVKGRFTISRDNAKSTVYLQMSSLKPEDTAIYFCARSKSTYISYNSNGYDYWGRGTQVTVSS
As for B2, the values for the K50 (50% binding concentration; column head reads KD) in assay [3] and in assay [4] were 0.04 µg/mL and 0.18 µg/mL, respectively.

B3: L8Cj3 Mutant 6 (VHH)
VHH: EVQLVESGGGLVQAGGFLRLSCELRGSIFNQYAMAWFRQAPGKEREFVAGMGAVPHYGEFVKGRFTISRDNAKSTVYLQMSSLKPEDTAIYYCARSKSTYISYNSNGYDYWGRGTQVTVSS
As to B3, the K50 (50% binding concentration; column head reads KD) in assay [3] stood at 0.024 µg/mL; in assay [4] it was 0.25 µg/mL.

B4: L8Cj3 Mutant 13 (VHH)
VHH: EVQLVESGGGLVQAGGFLRLSCELRGRTFNQYAMAWFRQAPGKEREFVAGMGAVPHYGEFVKGRFTISRDNAKSTVYLQMSSLKPEDTAIYFCARSKSTYISYNSNGYDYWGRGTQVTVSS
As for B4, the values for the K50 (50% binding concentration; column head reads KD) in assay [3] and in assay [4] were 0.027 µg/mL and greater than 100 µg/mL, respectively.

B5: L8Cj3 Mutant 10 (VHH)
VHH: EVQLVESGGGLVQAGGFLRLSCELRGSIFNQYAMAWFRQAPGKEREFVAGMGAVPHYGEFVKGRFTISRDNAKSTVYLQMSSLKPEDTAIYFCARSKSTYISYNSNEYDYWGRGTQVTVSS
Consider B5, for which the K50 (50% binding concentration; column head reads KD) stood at 0.086 µg/mL in assay [3] and 12.1 µg/mL in assay [4].

B6: L8Cj3 Mutant 12 (VHH)
VHH: EVQLVESGGGLVQAGGFLRLSCIYRGSIFNQYAMAWFRQAPGKEREFVAGMGAVPHYGEFVKGRFTISRDNAKSTVYLQMSSLKPEDTAIYFCARSKSTYISYNSNGYDYWGRGTQVTVSS
In the case of B6, the K50 (50% binding concentration; column head reads KD) in assay [3] is 0.042 µg/mL; in assay [4] it was greater than 100 µg/mL.

B7: L8i5 (VHH)
VHH: EVQLVESGGGLVQAGGFLRLSCEPRGSIFNQYAMAWFRQAPGKEREFVAGMGAVAHYGEFVKGRFTISRDNAKNTAYLQMNSLKPEDTAIYFCARSKSTYISYNSNGYDYWGRGTQVTVSS
With B7, the K50 (50% binding concentration; column head reads KD) was found to be 0.048 µg/mL in assay [3] and 8.54 µg/mL in assay [4].

B8: L8Cj3 Mutant 7 (VHH)
VHH: EVQLVESGGGLVQAGGFLRLSCELRGSIFNQYAMAWFRQAPGKEREFVAGMGAVPHYGEFVKGRFTISRDNAKSTVYLQMSSLKPEDTAIYFCAASKSTYISYNSNGYDYWGRGTQVTVSS
As to B8, the results for the K50 (50% binding concentration; column head reads KD) in assay [3] and in assay [4] were 0.95 µg/mL and greater than 100 µg/mL, respectively.

B9: L8Cj3 Mutant 9 (VHH)
VHH: EVQLVESGGGLVQAGGFLRLSCELRGSIFNQYAMAWFRQAPGKEREFVAGMGAVPHYGEFVKGRFTISRDNAKSTVYLQMSSLKPEDTAIYFCARSKSTYISYASNGYDYWGRGTQVTVSS
Regarding B9, the K50 (50% binding concentration; column head reads KD) worked out at 0.022 µg/mL in assay [3] and 0.14 µg/mL in assay [4].

B10: L8Cj3 Mutant 1 (VHH)
VHH: EVQLVESGGGLVQAGGFLRLSCAASGSIFNQYAMAWFRQAPGKEREFVAGMGAVPHYGEFVKGRFTISRDNAKSTVYLQMSSLKPEDTAIYFCARSKSTYISYNSNGYDYWGRGTQVTVSS
In the case of B10, the K50 (50% binding concentration; column head reads KD) in assay [3] was 0.058 µg/mL; in assay [4], 67.8 µg/mL.

B11: L8Cj3 Mutant 5 (VHH)
VHH: EVQLVESGGGLVQAGGFLRLSCELRGSIFNQYAMAWFRQAPGKEREFVAGMGAVPHYGEFVKGRFTISRDNAKSTVYLQMSSLKPEDTAVYFCARSKSTYISYNSNGYDYWGRGTQVTVSS
Regarding B11, the K50 (50% binding concentration; column head reads KD) in assay [3] amounted to 0.028 µg/mL; in assay [4], 1.07 µg/mL.

B12: L8Cj3 Mutant 11 (VHH)
VHH: EVQLVESGGGLVQAGGFLRLSCELRGSIFNQYAMAWFRQAPGKEREFVAGMGAVPHYGEFVKGRFTISRDNAKSTVYLQMSSLKPEDTAIYFCARSKSTYISYNSNGYDYWGQGTQVTVSS
For the molecule B12, the figures for the K50 (50% binding concentration; column head reads KD) in assay [3] and in assay [4] were 0.019 µg/mL and 9.26 µg/mL, respectively.

B13: L8Cj3 Mutant 8 (VHH)
VHH: EVQLVESGGGLVQAGGFLRLSCELRGSIFNQYAMAWFRQAPGKEREFVAGMGAVPHYGEFVKGRFTISRDNAKSTVYLQMSSLKPEDTAIYFCARSKNTYISYNSNGYDYWGRGTQVTVSS
For B13, the K50 (50% binding concentration; column head reads KD) turned out to be 0.02 µg/mL in assay [3] and 0.36 µg/mL in assay [4].

B14: L8Cj3 Mutant 4 (VHH)
VHH: EVQLVESGGGLVQAGGFLRLSCELRGSIFNQYAMAWFRQAPGKEREFVAGMGAVPHYADSVKGRFTISRDNAKSTVYLQMSSLKPEDTAIYFCARSKSTYISYNSNGYDYWGRGTQVTVSS
As to B14, the K50 (50% binding concentration; column head reads KD) in assay [3] came to 0.025 µg/mL; in assay [4], 1.84 µg/mL.

B15: L81H9 (VHH)
VHH: EVQLVESGGGLVQAGGSLRLSCVCSGFSSDEYAIGWFRQAPGKEREGVSYISREDGSRHYADSVKGRFTISTDYARNTVYLQMDSLKPEDTGVYYCAAALLGDYVLWLPEYPYNYWGQGTQVTVSS
In turn, B15 had a signal as percent of the signal of the control in assay [5] of less than 30%.

B16: J3_CDR2_fill_2 (site directed mutagenesis) (VHH)
VHH: EVQLVESGGGLVQAGGFLRLSCELRGSIFNQYAMAWFRQAPGKEREFVAGMSWGAVPHYGEFVKGRFTISRDNAKSTVYLQMSSLKPEDTAIYFCARSKSTYISYNSNGYDYWGRGTQVTVSS
With B16, the K50 (50% binding concentration) was greater than 10 µg/mL in assay [1] and greater than 100 µg/mL in assay [2].

B17: 3E3mod-long-CDR2 (VHH)
VHH: QVQLQESGGGLVQAGGSLRLSCAASQFTLESYAIGWFRQAPGKDSEGVACISSSDGSTYYADSVKGRFTISRDNAKNTVYLQMNSLKPEDTAVYHCATSGAGSYCTLRAFGSWGQGTQVTVSS
B17 came in with a K50 (50% binding concentration) in assay [1] greater than 10 µg/mL.

B18: L93E3 (VHH)
VHH: EVQLVESGGGLVQPGGSLRLSCAASQFTLESYAIGWFRQAPGKDSEGVACISSSTYYADSVKGRFTISRDNAKNTVYLQMESLKPEDTAVYHCATSGAGSYCTLRAFGSWGQGTQVTVSS
As to B18, in assay [6], the signal as percent of the signal of the control is less than 30%.

B19: L1719E1 (VHH)
VHH: EVQLVESGGGLVRHGDSLRLSCLVSGRTTSVYATGWFRQAPGKEREFVAAISWSGGYTNYADSVKGRFTISRDNAKNTVFLQMNSLKPEDTAVYYCAADRNPYRGSNNANAYDYWGQGTQVTVSS
In assay [7], B19 had a signal as percent of the signal of the control of less than 30%.
